Test in all cases: co-IP
Series [1] has as its target pro-ALP (yeast vacuolar alkaline phosphatase, pro-form) (S. cerevisiae) (UniProt P11491).
Series [2] has as its target Δ79-82ALP (dimerization mutant of pro-ALP) (S. cerevisiae) (UniProt P11491).
Series [3] concerns the molecule itself.

On to Erv26p (receptor), for which the values for the percent of total Erv26p recovered in the IP in series [1] and in series [2] were 2.5% and 1%, respectively.

B1: pro-ALP (yeast vacuolar alkaline phosphatase, pro-form) (natural protein, S. cerevisiae, UniProt P11491 1-566, looked up)
chain: MMTHTLPSEQTRLVPGSDSSSRPKKRRISKRSKIIVSTVVCIGLLLVLVQLAFPSSFALRSASHKKKNVIFFVTDGMGPASLSMARSFNQHVNDLPIDDILTLDEHFIGSSRTRSSDSLVTDSAAGATAFACALKSYNGAIGVDPHHRPCGTVLEAAKLAGYLTGLVVTTRITDATPASFSSHVDYRWQEDLIATHQLGEYPLGRVVDLLMGGGRSHFYPQGEKASPYGHHGARKDGRDLIDEAQSNGWQYVGDRKNFDSLLKSHGENVTLPFLGLFADNDIPFEIDRDEKEYPSLKEQVKVALGALEKASNEDKDSNGFFLMVEGSRIDHAGHQNDPASQVREVLAFDEAFQYVLEFAENSDTETVLVSTSDHETGGLVTSRQVTASYPQYVWYPQVLANATHSGEFLKRKLVDFVHEHKGASSKIENFIKHEILEKDLGIYDYTDSDLETLIHLDDNANAIQDKLNDMVSFRAQIGWTTHGHSAVDVNIYAYANKKATWSYVLNNLQGNHENTEVGQFLENFLELNLNEVTDLIRDTKHTSDFDATEIASEVQHYDEYYHELTN
For B1, the “ratio of untagged to HA-tagged pro-ALP immunoprecipitated” value in series [3] came out at 0.38.

B2: Δ79-82ALP (dimerization mutant of pro-ALP) (natural protein, S. cerevisiae, UniProt P11491 1-566, looked up)
chain: MMTHTLPSEQTRLVPGSDSSSRPKKRRISKRSKIIVSTVVCIGLLLVLVQLAFPSSFALRSASHKKKNVIFFVTDGMGSMARSFNQHVNDLPIDDILTLDEHFIGSSRTRSSDSLVTDSAAGATAFACALKSYNGAIGVDPHHRPCGTVLEAAKLAGYLTGLVVTTRITDATPASFSSHVDYRWQEDLIATHQLGEYPLGRVVDLLMGGGRSHFYPQGEKASPYGHHGARKDGRDLIDEAQSNGWQYVGDRKNFDSLLKSHGENVTLPFLGLFADNDIPFEIDRDEKEYPSLKEQVKVALGALEKASNEDKDSNGFFLMVEGSRIDHAGHQNDPASQVREVLAFDEAFQYVLEFAENSDTETVLVSTSDHETGGLVTSRQVTASYPQYVWYPQVLANATHSGEFLKRKLVDFVHEHKGASSKIENFIKHEILEKDLGIYDYTDSDLETLIHLDDNANAIQDKLNDMVSFRAQIGWTTHGHSAVDVNIYAYANKKATWSYVLNNLQGNHENTEVGQFLENFLELNLNEVTDLIRDTKHTSDFDATEIASEVQHYDEYYHELTN
On to B2, for which the “ratio of untagged to HA-tagged pro-ALP immunoprecipitated” value in series [3] was 0.05.

These data come from paper PMC2957810 (Traffic (Copenhagen, Denmark), 2009).
